Drawing on US20120258121A1 (OMEROS, published 2012), this text covers Kd for twelve molecules.

The target of assay [1] is T1, recombinant human FN14-Fc fusion protein (rhFN14-Fc; R&D Systems) (human, UniProt Q9NP84 28-79).
T1 construct: Bought reagent; Detected with PECy5-labeled anti-human IgG(Fc); also called soluble FN14; PECy5-labelled soluble antigen; not shown: Fc part of the bought fusion protein (detected with anti-human IgG(Fc))
T1 sequence: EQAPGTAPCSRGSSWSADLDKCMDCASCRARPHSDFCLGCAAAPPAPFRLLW
Nature of the assay: saturation binding of PECy5-labelled soluble antigen to FN14-specific DTLacO cells, flow cytometry. A general note: Flow cytometry measures light scatter and fluorescence of single cells or particles in a stream.

Assay [2] deals with T2, human FN14 on the cell surface (FN14-transfected cells or cancer cell lines intrinsically expressing FN14, … (human, UniProt Q9NP84 28-129)).
T2 construct: The cells in the assays are human cancer lines or FN14-transfected cells (293F/FN14); also called TWEAKR; CD266
T2 sequence: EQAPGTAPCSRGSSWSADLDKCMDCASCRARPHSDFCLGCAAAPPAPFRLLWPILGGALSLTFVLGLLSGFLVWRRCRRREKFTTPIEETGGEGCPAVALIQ
Nature of the assay: saturation binding of recombinant antibody on target-expressing cells.
Description: (§1) Saturation binding kinetics were determined by either staining FN14-specific DTLacO cells with various concentrations of fluorescent-labeled soluble antigen, or by staining FN14-transfected cells or cancer cell lines intrinsically expressing FN14 with various concentrations of the recombinant chimeric anti-FN14 mAbs.

In assay [3] the target is T2, human FN14 on the cell surface …. Nature of the assay: binding affinity; method not restated in Example 3 (saturation binding on FN14-expressing cells by the methods of Example 1).
Assay [4] has the same target. In words: saturation binding of recombinant antibody on target-expressing cells (A375 melanoma).
Description: as §1
The target is the same in assay [5]. In words: binding affinity; method not restated in Example 3 (saturation binding on FN14-expressing cells by the methods of Example 1). This is another data set of the same source.
For assay [6], the target named is T1, recombinant human FN14-Fc fusion …. In words: saturation binding of soluble antigen to DTLacO[FS24] cells, flow cytometry.

B1: surface immunoglobulin of the FN14-specific DTLacO cell population FS17 (antibody, V domains shown)
VH: AVTLDESGGGLQTPGGALSLVCKASGFTFSSYDMAWVRQEPGKGLEWVAGIDDDGSGRRYAPAVKGRATISRDNGQSTLRLQLNNLRAEDTGTYYCTKCAYTGGCDYEGGYIDAWGHGTEVIVSS
VL: ALTQPASVSANPGETVKITCSGGGSSYYAGSYYYGWYQQKAPGSAPVTLIYYNNKRPSDIPSRFSGSLSGSTNTLTITGVRADDEAVYFCGSIDNSGAAFGAGTTLTVL
notes: Chicken surface IgM on DTLacO cells
Consider B1, for which, in assay [1], the equilibrium dissociation constant (Kd) (commonly the equilibrium constant for the complex coming apart) came to 700 pM.

B2: recombinant chimeric monoclonal antibody PS4B (chicken V regions, human IgG1 / lambda constant regions) (antibody, V domains shown)
VH: AVTLDESGGGLQTPGGALSLVCKASGFTFSSYDMFWVRQEPGKGLEWVAGIDDDGSGRRYAPAVKGRATISRDNGQSTLRLQLNNLRAEDTGTYYCTKCAYSSGCDYEGGYIDAWGHGTEVIVSS
VL: ALTQPASVSANPGETVKITCSGGGSSYYAGSYYYGWYQQKSPGSAPVTVIYYNNKRPSDIPSRFSGSLSGSTNTLTITGVRADDEAVYFCGSIDNSGAAFGAGTTLTVLG
Turning to B2, the Kd in assay [2] stood at 350 pM.

B3: chimeric PS4 antibody (parent of the humanized PS4 versions) (antibody, human IgG1, lambda, V domains shown)
VH: AVTLDESGGGLQTPGGALSLVCKASGFTFSSYDMFWVRQEPGKGLEWVAGIDDDGSGRRYAPAVKGRATISRDNGQSTLRLQLNNLRAEDTGTYYCTKCAYSSGCDYEGGYIDAWGHGTEVIVSS
VL: ALTQPASVSANPGETVKITCSGGGSSYYAGSYYYGWYQQKSPGSAPVTVIYYNNKRPSDIPSRFSGSLSGSTNTLTITGVRADDEAVYFCGSIDNSGAAFGAGTTLTVLG
notes: also called Chicken PS4; original chimeric antibody PS4
In turn, B3 showed a Kd in assay [3] of 210 pM.

B4: recombinant chimeric monoclonal antibody PS4A (chicken V regions, human IgG1 / lambda constant regions) (antibody, V domains shown)
VH: AVTLDESGGGLQTPGGALSLVCKASGFTFSSYDMFWVRQEPGKGLEWVAGIDDDGSGRRYAPAVKGRATISRDNGQSTLRLQLNNLRAEDTGTYYCTKCAYSSGCDYEGGYIDAWGHGTEVIVSS
VL: ALTQPSSVSANPGETVKITCSGGGSSYYAGSYYYGWYQQKAPGSAPVTLIYYNNKRPSDIPSRFSGSLSGSTNTLTITGVRADDEAVYFCGSIDNSGAAFGAGTTLTVLG
As to B4, in assay [2], the Kd turned out to be 210 pM.

B5: recombinant chimeric monoclonal antibody FS24 (chicken V regions, human IgG1 / lambda constant regions) (antibody, V domains shown)
VH: AVTLDESGGGLQTPGGALSLVCKASGFTFSSYDMAWVRQEPGKGLEWVAGIDYDGSGRRYAPAVKGRATISRDNGQSTLRLQLNNLRAEDTGTYYCTKCGYTGGCDYEGGYIDAWGHGTEVIVSS
VL: ALTQPSSVSANPGETVKITCSGGGSSYYAGSYYYGWYQQKAPGSAPVTLIYYNNKRPSDIPSRFSGSLSGSTNTLTITGVRADDEAVYFCGSIDNSGAAFGAGTTLTVLG
notes: also called mAb FS24; Chicken FS24
Take B5: the equilibrium dissociation constant (Kd) turned out to be 210 pM in assay [4] and 260 pM in assay [5].

B6: recombinant chimeric monoclonal antibody FS10 (chicken V regions, human IgG1 / lambda constant regions) (antibody, V domains shown)
VH: AVTLDESGGGLQTPGGALSLVCKASGFTFSSYDMAWVRQEPGKGLEWVAGIDDDGSGRRYAPAVKGRATISRDNGQSTLRLQLNNLRAEDTGTYYCTKCAYSSGCDYEGGYIDAWGHGTEVIVSS
VL: ALTQPASVSANPGETVKITCSGGGSSYYAGSYYYGWYQQKAPGSALVTLIYYNNKRPSDIPSRFSGSLSGSTNTLTITGVRADDEAVYFCGSADNSGAAFGAGTTLTVLG
notes: expressed in 293F cells; also called mAb FS10
For the molecule B6, the Kd in assay [2] came to 25000 pM.

B7: surface immunoglobulin of the FN14-specific DTLacO cell population FS10 (antibody, V domains shown)
VH: AVTLDESGGGLQTPGGALSLVCKASGFTFSSYDMAWVRQEPGKGLEWVAGIDDDGSGRRYAPAVKGRATISRDNGQSTLRLQLNNLRAEDTGTYYCTKCAYSSGCDYEGGYIDAWGHGTEVIVSS
VL: ALTQPASVSANPGETVKITCSGGGSSYYAGSYYYGWYQQKAPGSALVTLIYYNNKRPSDIPSRFSGSLSGSTNTLTITGVRADDEAVYFCGSADNSGAAFGAGTTLTVL
notes: Chicken surface IgM on DTLacO (DT40-derived) cells
As to B7, the equilibrium dissociation constant (Kd) in assay [1] was 25000 pM.

B8: recombinant chimeric monoclonal antibody FS17 (chicken V regions, human IgG1 / lambda constant regions) (antibody, V domains shown)
VH: AVTLDESGGGLQTPGGALSLVCKASGFTFSSYDMAWVRQEPGKGLEWVAGIDDDGSGRRYAPAVKGRATISRDNGQSTLRLQLNNLRAEDTGTYYCTKCAYTGGCDYEGGYIDAWGHGTEVIVSS
VL: ALTQPASVSANPGETVKITCSGGGSSYYAGSYYYGWYQQKAPGSAPVTLIYYNNKRPSDIPSRFSGSLSGSTNTLTITGVRADDEAVYFCGSIDNSGAAFGAGTTLTVLG
notes: also called mAb FS17
B8: in assay [2], the Kd turned out to be 360 pM.

B9: surface immunoglobulin of the FN14-specific DTLacO cell population FS24 (antibody, V domains shown)
VH: AVTLDESGGGLQTPGGALSLVCKASGFTFSSYDMAWVRQEPGKGLEWVAGIDYDGSGRRYAPAVKGRATISRDNGQSTLRLQLNNLRAEDTGTYYCTKCGYTGGCDYEGGYIDAWGHGTEVIVSS
VL: ALTQPSSVSANPGETVKITCSGGGSSYYAGSYYYGWYQQKAPGSAPVTLIYYNNKRPSDIPSRFSGSLSGSTNTLTITGVRADDEAVYFCGSIDNSGAAFGAGTTLTVL
notes: Chicken surface IgM on DTLacO cells; also called DTLacO[FS24]
In the case of B9, the dissociation constant Kd in assay [6] was 440 pM; in assay [1], 670 pM.

B10: Humanized PS4: H.1/L.1 (antibody, human IgG1)
heavy: not shown
light: SYELTQPPSVSVSPGQTARITCSGGGSSYYAGSYYYGWYQQKPGQAPVTVIYYNNKRPSGIPERFSGSLSGSTNTLTISGVQAEDEADYYCGSIDNSGAAFGGGTKLTVLGQPKAAPSVTLFPPSSEELQANKATLVCLISDFYPGAVTVAWKADSSPVKAGVETTTPSKQSNNKYAASSYLSLTPEQWKSHRSYSCQVTHEGSTVEKTVAPTECS
notes: also called first humanized version of PS4
B10 yielded a Kd in assay [3] of 15000 pM.

B11: Humanized PS4: H.1/L.9 (antibody, human IgG1, lambda)
heavy: not shown
light: ALTQPPSVSVSPGQTARITCSGGGSSYYAGSYYYGWYQQKPGQAPVTVIYYNNKRPSGIPERFSGSLSGSTNTLTISGVQAEDEADYYCGSIDNSGAAFGGGTKLTVLGQPKAAPSVTLFPPSSEELQANKATLVCLISDFYPGAVTVAWKADSSPVKAGVETTTPSKQSNNKYAASSYLSLTPEQWKSHRSYSCQVTHEGSTVEKTVAPTECS
notes: also called humanized PS4 antibody H.1/L.9
Turning to B11, the Kd in assay [3] is 240 pM.

B12: Humanized FS24 (antibody, human IgG1, lambda, V domains shown)
VH: EVQLVESGGGLVQPGGSLRLSCAASGFTFSSYDMAWVRQAPGKGLEWVAGIDYDGSGRRYAPAVKGRATISRDNSKNTLYLQMNSLRAEDTAVYYCTKCGYTGGCDYEGGYIDAWGQGTLVTVSS
VL: ELTQPPSVSVSPGQTARITCSGGGSSYYAGSYYYGWYQQKPGQAPVTLIYYNNKRPSGIPERFSGSLSGSTNTLTISGVQAEDEADYYCGSIDNSGAAFGGGTKLTVLG
notes: also called hFS24; humanized FS24 antibody
For B12, the Kd in assay [5] was determined as 210 pM.
